Biological target: T1, LDLR (Homo sapiens, UniProt P01130)
T1 construct: expressed in transfected cells; host or cells: HEK293 (ATCC CRL-1573)
Assay type: binding

T1 sequence (P01130 22-860): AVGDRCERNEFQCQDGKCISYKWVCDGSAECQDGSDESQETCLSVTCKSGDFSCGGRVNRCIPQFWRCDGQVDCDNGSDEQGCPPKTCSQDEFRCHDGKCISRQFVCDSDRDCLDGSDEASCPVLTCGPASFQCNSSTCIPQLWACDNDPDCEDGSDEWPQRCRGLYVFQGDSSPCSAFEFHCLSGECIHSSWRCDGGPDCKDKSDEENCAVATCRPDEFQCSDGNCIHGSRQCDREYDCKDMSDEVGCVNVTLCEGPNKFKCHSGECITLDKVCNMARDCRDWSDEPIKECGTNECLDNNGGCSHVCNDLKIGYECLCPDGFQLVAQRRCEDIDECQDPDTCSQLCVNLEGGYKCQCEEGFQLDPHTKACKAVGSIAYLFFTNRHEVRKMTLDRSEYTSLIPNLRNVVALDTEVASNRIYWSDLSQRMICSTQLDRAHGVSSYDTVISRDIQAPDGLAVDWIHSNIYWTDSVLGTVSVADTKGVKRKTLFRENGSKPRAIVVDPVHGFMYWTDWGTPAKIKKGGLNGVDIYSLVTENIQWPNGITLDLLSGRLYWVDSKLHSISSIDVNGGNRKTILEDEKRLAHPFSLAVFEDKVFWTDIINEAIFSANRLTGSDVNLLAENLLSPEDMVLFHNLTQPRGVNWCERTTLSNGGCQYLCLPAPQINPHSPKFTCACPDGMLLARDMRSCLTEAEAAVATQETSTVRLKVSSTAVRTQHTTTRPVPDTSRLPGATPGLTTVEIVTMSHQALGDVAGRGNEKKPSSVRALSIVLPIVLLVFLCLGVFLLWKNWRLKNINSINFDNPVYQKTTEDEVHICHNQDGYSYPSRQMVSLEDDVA

“BODIPY-FL-labelled LDL: BOPIDY FL complexed LDL purchased from ThermoFisher Scientific; fluorescent ligand for the BRET binding assay” was tested, and the “ligand-binding BRET signal (binding to LDLR)” value was “concentration-dependent ligand-binding BRET signal”.
